Test system: Escherichia coli TOP10
Experiment: shrunken log2 fold change of peptide-encoding DNA abundance (4.5 h post-induction vs induction); higher = less antimicrobial activity (less host growth inhibition)
Details: time post-induction: 4.5 h; library: site-saturation at positions 5, 18, 19, 20
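Also: peptides expressed intracellularly from a pBAD plasmid library in pooled LB shake-flask culture, induced with 0.3% L-arabinose, DNA abundance read by NGS, three biological replicates, DESeq2 with apeglm shrinkage.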

| Sequence | shrunken log2 fold change |
| --- | --- |
| RRIRGRPPRLPRPRPRPMIIPRP | 0.0975 |
| RRIRFRPPRLPRPRPRPRNAPRP | 0.347 |
| RRIRYRPPRLPRPRPRPRWFPRP | -0.0532 |
| RRIRSRPPRLPRPRPRPSWPPRP | -0.135 |
| RRIRMRPPRLPRPRPRPHIIPRP | -0.991 |
| RRIRYRPPRLPRPRPRPHFPPRP | -0.00195 |
| RRIRFRPPRLPRPRPRPIAIPRP | -0.149 |
| RRIRLRPPRLPRPRPRPQSNPRP | -0.0786 |
| RRIRDRPPRLPRPRPRPWWGPRP | -0.00301 |
| RRIRARPPRLPRPRPRPTQNPRP | 1.05 |
| RRIRDRPPRLPRPRPRPTWIPRP | -0.0164 |
| RRIRTRPPRLPRPRPRPACLPRP | -0.217 |
| RRIRRRPPRLPRPRPRPQPCPRP | -0.101 |
| RRIRLRPPRLPRPRPRPAVGPRP | -0.0315 |
| RRIRQRPPRLPRPRPRPPIDPRP | 0.00417 |
| RRIRHRPPRLPRPRPRPIHRPRP | -0.147 |
| RRIRKRPPRLPRPRPRPATCPRP | 0.0272 |
| RRIRNRPPRLPRPRPRPDHYPRP | -0.202 |
| RRIRGRPPRLPRPRPRPFQVPRP | 0.0301 |
| RRIRVRPPRLPRPRPRPQFCPRP | -0.17 |
| RRIRVRPPRLPRPRPRPCHKPRP | -0.203 |
| RRIRLRPPRLPRPRPRPFAQPRP | 0.18 |
| RRIRNRPPRLPRPRPRPQKWPRP | -0.0202 |
| RRIRPRPPRLPRPRPRPTTQPRP | 0.0237 |
| RRIRARPPRLPRPRPRPDKLPRP | 0.105 |

| Sequence | shrunken log2 fold change |
| --- | --- |
| RRIRPRPPRLPRPRPRPWRCPRP | 0.199 |
| RRIRSRPPRLPRPRPRPHMCPRP | -0.425 |
| RRIRDRPPRLPRPRPRPHDSPRP | -0.00201 |
| RRIRPRPPRLPRPRPRPTDFPRP | -0.193 |
| RRIRDRPPRLPRPRPRPPMNPRP | -0.258 |
| RRIRPRPPRLPRPRPRPYFIPRP | -0.656 |
| RRIRTRPPRLPRPRPRPESSPRP | -0.0341 |
| RRIRWRPPRLPRPRPRPLAMPRP | 0.0898 |
| RRIRDRPPRLPRPRPRPHQHPRP | -0.308 |
| RRIRMRPPRLPRPRPRPRGPPRP | 0.684 |
| RRIRERPPRLPRPRPRPNYVPRP | -0.931 |
| RRIRNRPPRLPRPRPRPCLAPRP | -0.69 |
| RRIRPRPPRLPRPRPRPPDTPRP | 0.148 |
| RRIRWRPPRLPRPRPRPCNTPRP | -0.169 |
| RRIRQRPPRLPRPRPRPQSGPRP | -0.0474 |
| RRIRERPPRLPRPRPRPGYEPRP | -0.00204 |
| RRIRYRPPRLPRPRPRPWCFPRP | -0.369 |
| RRIRNRPPRLPRPRPRPQPSPRP | 0.186 |
| RRIRFRPPRLPRPRPRPRKMPRP | 0.0208 |
| RRIRDRPPRLPRPRPRPYFEPRP | -0.3 |
| RRIRQRPPRLPRPRPRPSIMPRP | -0.0993 |
| RRIRSRPPRLPRPRPRPDRWPRP | 0.0855 |
| RRIRSRPPRLPRPRPRPRQTPRP | 0.0651 |
| RRIRYRPPRLPRPRPRPYQIPRP | -0.659 |
| RRIRYRPPRLPRPRPRPKSLPRP | -0.204 |

| Sequence | shrunken log2 fold change |
| --- | --- |
| RRIRTRPPRLPRPRPRPWHMPRP | 0.0039 |
| RRIRCRPPRLPRPRPRPFKTPRP | -0.478 |
| RRIRNRPPRLPRPRPRPECGPRP | 0.445 |
| RRIRQRPPRLPRPRPRPNAWPRP | 0.0879 |
| RRIRSRPPRLPRPRPRPKDSPRP | 0.1 |
| RRIRIRPPRLPRPRPRPKSTPRP | -0.214 |
| RRIRFRPPRLPRPRPRPNHLPRP | -1.06 |
| RRIRFRPPRLPRPRPRPEASPRP | 0.0218 |
| RRIRHRPPRLPRPRPRPTGPPRP | 0.149 |
| RRIRLRPPRLPRPRPRPRIMPRP | -0.333 |
| RRIRQRPPRLPRPRPRPQKFPRP | -0.283 |
| RRIRNRPPRLPRPRPRPYPTPRP | -0.074 |
| RRIRYRPPRLPRPRPRPHPFPRP | -1.3 |
| RRIRVRPPRLPRPRPRPSLRPRP | 0.133 |
| RRIRSRPPRLPRPRPRPMMKPRP | 1.75 |
| RRIRHRPPRLPRPRPRPIPGPRP | -0.158 |
| RRIRKRPPRLPRPRPRPNLMPRP | 3.86 |
| RRIRPRPPRLPRPRPRPTSLPRP | 0.044 |
| RRIRIRPPRLPRPRPRPCMMPRP | -0.654 |
| RRIRARPPRLPRPRPRPKPLPRP | 0.455 |
| RRIRWRPPRLPRPRPRPPIRPRP | -0.0117 |
| RRIRNRPPRLPRPRPRPKTCPRP | 0.0411 |
| RRIRARPPRLPRPRPRPLPWPRP | 0.51 |
| RRIRVRPPRLPRPRPRPSWEPRP | -0.0979 |
| RRIRWRPPRLPRPRPRPEHSPRP | 0.114 |

| Sequence | shrunken log2 fold change |
| --- | --- |
| RRIRARPPRLPRPRPRPKPWPRP | 0.823 |
| RRIRERPPRLPRPRPRPNNMPRP | -0.713 |
| RRIRIRPPRLPRPRPRPEKGPRP | -0.257 |
| RRIRIRPPRLPRPRPRPTELPRP | -0.0944 |
| RRIRTRPPRLPRPRPRPSSLPRP | -0.0765 |
| RRIRKRPPRLPRPRPRPYWYPRP | -0.667 |
| RRIRWRPPRLPRPRPRPQWQPRP | 0.0209 |
| RRIRIRPPRLPRPRPRPCFVPRP | -0.422 |
| RRIRDRPPRLPRPRPRPGWIPRP | 0.19 |
| RRIRCRPPRLPRPRPRPSSLPRP | -0.555 |
| RRIRFRPPRLPRPRPRPSARPRP | 0.0874 |
| RRIRLRPPRLPRPRPRPKHDPRP | -0.0476 |
| RRIRMRPPRLPRPRPRPFCFPRP | 0.222 |
| RRIRARPPRLPRPRPRPIVMPRP | -0.0831 |
| RRIRARPPRLPRPRPRPHTWPRP | 0.0641 |
| RRIRCRPPRLPRPRPRPNTFPRP | -0.664 |
| RRIRLRPPRLPRPRPRPMIYPRP | -0.0701 |
| RRIRERPPRLPRPRPRPGARPRP | 0.255 |
| RRIRHRPPRLPRPRPRPQALPRP | -0.278 |
| RRIRWRPPRLPRPRPRPICKPRP | -0.0506 |
| RRIRARPPRLPRPRPRPWIEPRP | -0.105 |
| RRIRQRPPRLPRPRPRPHDHPRP | -0.0539 |
| RRIRQRPPRLPRPRPRPEFCPRP | 0.0723 |
| RRIRDRPPRLPRPRPRPRFRPRP | 0.951 |
| RRIRIRPPRLPRPRPRPFMYPRP | -1.36 |

| Sequence | shrunken log2 fold change |
| --- | --- |
| RRIRHRPPRLPRPRPRPHIEPRP | 0.032 |
| RRIRLRPPRLPRPRPRPKKGPRP | -0.166 |
| RRIRVRPPRLPRPRPRPKWVPRP | 0.0874 |
| RRIRIRPPRLPRPRPRPEMGPRP | -0.105 |
| RRIRYRPPRLPRPRPRPCINPRP | -0.00114 |
| RRIRDRPPRLPRPRPRPVKGPRP | 0.0617 |
| RRIRLRPPRLPRPRPRPAMVPRP | 0.0527 |
| RRIRQRPPRLPRPRPRPRRIPRP | -0.27 |
| RRIRYRPPRLPRPRPRPKGYPRP | -0.0889 |
| RRIRGRPPRLPRPRPRPDFMPRP | 0.545 |
| RRIRQRPPRLPRPRPRPCDWPRP | 0.202 |
| RRIRMRPPRLPRPRPRPIEVPRP | -0.00822 |
| RRIRQRPPRLPRPRPRPCIKPRP | 0.155 |
| RRIRFRPPRLPRPRPRPFMFPRP | -0.739 |
| RRIRNRPPRLPRPRPRPEYIPRP | -0.0947 |
| RRIRPRPPRLPRPRPRPDRLPRP | 0.48 |
| RRIRHRPPRLPRPRPRPPIWPRP | 0.324 |
| RRIRKRPPRLPRPRPRPCVDPRP | 0.268 |
| RRIRCRPPRLPRPRPRPCRWPRP | -0.103 |
| RRIRCRPPRLPRPRPRPMGSPRP | 0.0655 |
| RRIRKRPPRLPRPRPRPQDSPRP | -0.017 |
| RRIRFRPPRLPRPRPRPLIFPRP | -0.666 |
| RRIRHRPPRLPRPRPRPICRPRP | 0.0125 |
| RRIRQRPPRLPRPRPRPPDLPRP | 0.404 |
| RRIRCRPPRLPRPRPRPEGKPRP | 0.31 |

| Sequence | shrunken log2 fold change |
| --- | --- |
| RRIRNRPPRLPRPRPRPGIPPRP | -0.0284 |
| RRIRPRPPRLPRPRPRPGVVPRP | 0.215 |
| RRIRQRPPRLPRPRPRPKWVPRP | 0.0809 |
| RRIRVRPPRLPRPRPRPRKMPRP | 0.299 |
| RRIRHRPPRLPRPRPRPRTKPRP | 0.204 |
| RRIRPRPPRLPRPRPRPFGLPRP | -0.209 |
| RRIRYRPPRLPRPRPRPEQMPRP | 0.195 |
| RRIRSRPPRLPRPRPRPHQNPRP | -0.0421 |
| RRIRYRPPRLPRPRPRPCIAPRP | -0.148 |
| RRIRERPPRLPRPRPRPGVEPRP | -0.194 |
| RRIRERPPRLPRPRPRPRGPPRP | 0.662 |
| RRIRDRPPRLPRPRPRPCFQPRP | -0.0196 |
| RRIRNRPPRLPRPRPRPTNNPRP | -0.545 |
| RRIRMRPPRLPRPRPRPVQLPRP | 0.0278 |
| RRIRKRPPRLPRPRPRPSAIPRP | -0.00962 |
| RRIRLRPPRLPRPRPRPVPGPRP | 0.113 |
| RRIRTRPPRLPRPRPRPPTVPRP | 0.44 |
| RRIRNRPPRLPRPRPRPKWAPRP | -0.0431 |
| RRIRIRPPRLPRPRPRPFCSPRP | -0.426 |
| RRIRSRPPRLPRPRPRPCRAPRP | -0.0808 |
| RRIRTRPPRLPRPRPRPARRPRP | 0.204 |
| RRIRSRPPRLPRPRPRPPPAPRP | 1.04 |
| RRIRMRPPRLPRPRPRPVRSPRP | 1.23 |
| RRIRKRPPRLPRPRPRPKFHPRP | 0.161 |
| RRIRARPPRLPRPRPRPNMHPRP | 0.0638 |

Source: the supplement of paper PMC9112550, “Optimization of the antimicrobial peptide Bac7 by deep mutational scanning” (BMC Biology, 2022)
